# Data from US9931415B2, “Pyrrolobenzodiazepine-antibody conjugates” (ADC THERAPEUTICS S.A., priority 2012, dated 2018).
# What was measured:
# CD25 on Karpas299 cells = biological target: T1, CD25 on Karpas299 cells (Homo sapiens, UniProt P01589); assay: Binding of HuMax-TAC to CD25 +ve cell lines by flow cytometry (Karpas299)
# T1 construct: Surface CD25 expression on Karpas and SU-DHL-1 was determined by flow cytometry; endogenous in cells; host or cells: Karpas299 and SU-DHL-1 cell lines
# T1 sequence (P01589 22-272): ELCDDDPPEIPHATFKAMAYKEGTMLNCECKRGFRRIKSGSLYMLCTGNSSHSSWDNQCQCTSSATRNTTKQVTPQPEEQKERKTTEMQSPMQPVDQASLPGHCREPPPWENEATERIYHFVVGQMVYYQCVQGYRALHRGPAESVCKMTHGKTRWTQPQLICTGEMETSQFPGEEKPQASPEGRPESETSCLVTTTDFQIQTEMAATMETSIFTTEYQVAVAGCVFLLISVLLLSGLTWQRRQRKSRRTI
# Protocol: (§1) Karpas299 and SU-DHL-1 anaplastic large cell lymphoma (ALCL)-derived cell lines have been previously reported to express CD25 (2,3). To confirm their expression profile, CD25 surface expression was analyzed by flow cytometry. HuMax-TAC was used as a CD25-specific antibody. B12 was used as a negative control antibody.
# (§2) Surface CD25 expression on Karpas and SU-DHL-1 was determined by flow cytometry. Graphs represent the average of three (Karpas299) or four independent experiments (SU-DHL-1). EC50 values are reported in ng/ml.
# CD25 on SU-DHL-1 cells = biological target: T2, CD25 on SU-DHL-1 cells (Homo sapiens, UniProt P01589); assay: Binding of HuMax-TAC to CD25 +ve cell lines by flow cytometry (SU-DHL-1)
# T2 construct: endogenous in cells; host or cells: Karpas299 and SU-DHL-1 cell lines
# T2 sequence (P01589 22-272): T1 sequence (P01589 22-272)
# Protocol: as §1, §2
substance,measurement,setting,value
HuMax-TAC: anti-CD25 antibody comprising a VH domain of SEQ ID NO. 1 and a VL domain of SEQ ID NO. 2,binding to cell surface CD25 (flow cytometry),CD25 on Karpas299 cells,specifically bound
same,EC50,"CD25 on Karpas299 cells; flow cytometry, average of three experiments",20.21 ng/mL
same,binding to cell surface CD25 (flow cytometry),CD25 on SU-DHL-1 cells,specifically bound
same,EC50,"CD25 on SU-DHL-1 cells; flow cytometry, average of four experiments",34.06 ng/mL
